Data from publication PMC1635243.

Target: recombinant T2 domain of xNAP1 (Xenopus nucleosome assembly protein), residues 38-282, histidine tagged (Xenopus laevis)
Experiment: AUC

stoichiometry N: 12 to 16 subunits
Substance: recombinant T2 domain of xNAP1 (Xenopus nucleosome assembly protein), residues 38-282, histidine tagged (domain or fragment)
